Non-standard residues stand in square brackets, D forms with d. *: point of attachment. X10 = Tetrahydro‑2H‑pyran‑4‑yl‑carbamoyl, O=C(NC1CCOCC1)*; Phe(2-Me) = Cc1ccccc1C[C@H](N)C(=O)O; Cha = N[C@@H](CC1CCCCC1)C(=O)O; Aib = CC(C)(N)C(=O)O
T1: human Y2 receptor (human, UniProt P49146 1-381)
T1 sequence (looked up): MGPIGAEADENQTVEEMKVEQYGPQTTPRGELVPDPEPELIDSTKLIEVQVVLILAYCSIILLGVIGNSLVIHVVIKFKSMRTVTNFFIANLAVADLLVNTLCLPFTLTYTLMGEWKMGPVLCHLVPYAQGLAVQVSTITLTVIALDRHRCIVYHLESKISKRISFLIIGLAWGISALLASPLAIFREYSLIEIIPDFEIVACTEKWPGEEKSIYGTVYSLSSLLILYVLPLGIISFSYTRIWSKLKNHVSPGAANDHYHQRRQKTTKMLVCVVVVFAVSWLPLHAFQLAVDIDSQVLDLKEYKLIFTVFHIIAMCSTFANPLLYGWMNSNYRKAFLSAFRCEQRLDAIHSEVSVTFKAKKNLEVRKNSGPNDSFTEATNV

B1: Ac-[D-Pro24, Cha27,28, Aib31, DL-Phe(2,6-Me2)36]-PYY(23-36) (peptide)
peptide: Ac-S[dP]RH[Cha][Cha]NL[Aib]TRQRX-NH2
modifications: not fully specified (residue 14); printed as Ac-Ser-D-Pro-Arg-His-Cha-Cha-Asn-Leu-Aib-Thr-Arg-Gln-Arg-DL-Phe(2,6-Me2)-NH2; also: residue 36 is DL racemic
notes: residue 36 is a DL racemate; also called compound No. 201
B2: [(1S)-5-Amino-1-carboxypentyl]carbamoyl-[D-Pro24, Cha27,28,36, Aib31]-PYY(23-36) (peptide)
peptide: {((1S)-5-amino-1-carboxypentyl)carbamoyl}-S[dP]RH[Cha][Cha]NL[Aib]TRQR[Cha]-NH2
notes: calculated mass 1980.2 fits the name; also called compound No. 323
B3: Tetrahydro-2H-pyran-4-yl-carbamoyl-[Glu23, D-Pro24, Cha27,28,36, Lys30, Aib31]-PYY(23-36) (peptide)
peptide: X10-E[dP]RH[Cha][Cha]NK[Aib]TRQR[Cha]-NH2
SMILES: C[C@@H](O)[C@H](NC(=O)C(C)(C)NC(=O)[C@H](CCCCN)NC(=O)[C@H](CC(N)=O)NC(=O)[C@H](CC1CCCCC1)NC(=O)[C@H](CC1CCCCC1)NC(=O)[C@H](Cc1c[nH]cn1)NC(=O)[C@H](CCCNC(=N)N)NC(=O)[C@H]1CCCN1C(=O)[C@H](CCC(=O)O)NC(=O)NC1CCOCC1)C(=O)N[C@@H](CCCNC(=N)N)C(=O)N[C@@H](CCC(N)=O)C(=O)N[C@@H](CCCNC(=N)N)C(=O)N[C@@H](CC1CCCCC1)C(N)=O
notes: also called compound No. 230
B4: Ac-[Glu23, D-Pro24, Cha27,28, Lys30, Aib31, Phe(2Me)36]-PYY(23-36) (peptide)
peptide: Ac-E[dP]RH[Cha][Cha]NK[Aib]TRQR[Phe(2-Me)]-NH2
SMILES: CC(=O)N[C@@H](CCC(=O)O)C(=O)N1CCC[C@@H]1C(=O)N[C@@H](CCCNC(=N)N)C(=O)N[C@@H](Cc1c[nH]cn1)C(=O)N[C@@H](CC1CCCCC1)C(=O)N[C@@H](CC1CCCCC1)C(=O)N[C@@H](CC(N)=O)C(=O)N[C@@H](CCCCN)C(=O)NC(C)(C)C(=O)N[C@H](C(=O)N[C@@H](CCCNC(=N)N)C(=O)N[C@@H](CCC(N)=O)C(=O)N[C@@H](CCCNC(=N)N)C(=O)N[C@@H](Cc1ccccc1C)C(N)=O)[C@@H](C)O
notes: also called compound No. 256
B5: Ac-[D-Pro24, Tyr26, Cha27,36, Aib28,31, Lys30]-PYY(23-36) (peptide)
peptide: Ac-S[dP]RY[Cha][Aib]NK[Aib]TRQR[Cha]-NH2
SMILES: CC(=O)N[C@@H](CO)C(=O)N1CCC[C@@H]1C(=O)N[C@@H](CCCNC(=N)N)C(=O)N[C@@H](Cc1ccc(O)cc1)C(=O)N[C@@H](CC1CCCCC1)C(=O)NC(C)(C)C(=O)N[C@@H](CC(N)=O)C(=O)N[C@@H](CCCCN)C(=O)NC(C)(C)C(=O)N[C@H](C(=O)N[C@@H](CCCNC(=N)N)C(=O)N[C@@H](CCC(N)=O)C(=O)N[C@@H](CCCNC(=N)N)C(=O)N[C@@H](CC1CCCCC1)C(N)=O)[C@@H](C)O
notes: also called compound No. 346
B6: Ac-[D-Pro24, Phe26, Cha27,36, Aib28,31, Lys30]-PYY(23-36) (peptide)
peptide: Ac-S[dP]RF[Cha][Aib]NK[Aib]TRQR[Cha]-NH2
SMILES: CC(=O)N[C@@H](CO)C(=O)N1CCC[C@@H]1C(=O)N[C@@H](CCCNC(=N)N)C(=O)N[C@@H](Cc1ccccc1)C(=O)N[C@@H](CC1CCCCC1)C(=O)NC(C)(C)C(=O)N[C@@H](CC(N)=O)C(=O)N[C@@H](CCCCN)C(=O)NC(C)(C)C(=O)N[C@H](C(=O)N[C@@H](CCCNC(=N)N)C(=O)N[C@@H](CCC(N)=O)C(=O)N[C@@H](CCCNC(=N)N)C(=O)N[C@@H](CC1CCCCC1)C(N)=O)[C@@H](C)O
notes: also called compound No. 345
B7: Ac-[D-Pro24, Trp26, Cha27,36, Aib28,31, Lys30]-PYY(23-36) (peptide)
peptide: Ac-S[dP]RW[Cha][Aib]NK[Aib]TRQR[Cha]-NH2
SMILES: CC(=O)N[C@@H](CO)C(=O)N1CCC[C@@H]1C(=O)N[C@@H](CCCNC(=N)N)C(=O)N[C@@H](Cc1c[nH]c2ccccc12)C(=O)N[C@@H](CC1CCCCC1)C(=O)NC(C)(C)C(=O)N[C@@H](CC(N)=O)C(=O)N[C@@H](CCCCN)C(=O)NC(C)(C)C(=O)N[C@H](C(=O)N[C@@H](CCCNC(=N)N)C(=O)N[C@@H](CCC(N)=O)C(=O)N[C@@H](CCCNC(=N)N)C(=O)N[C@@H](CC1CCCCC1)C(N)=O)[C@@H](C)O
notes: also called compound No. 347

Molecular target: T1, human Y2 receptor
Test: cell-based or functional assay

| GBA EC50 Ratio ([35S]GTPγS binding) | Binder |
| --- | --- |
| 2 EC50 compound/EC50 PYY(3-36) | B1 |
| 0.95 EC50 compound/EC50 PYY(3-36) | B2 |
| 2.5 EC50 compound/EC50 PYY(3-36) | B3 |
| 1.2 EC50 compound/EC50 PYY(3-36) | B4 |
| 1.3 EC50 compound/EC50 PYY(3-36) | B5 |
| 1.4 EC50 compound/EC50 PYY(3-36) | B6 |
| 1.3 EC50 compound/EC50 PYY(3-36) | B7 |

Molecular target: T1, human Y2 receptor
Test: RBA: displacement of [125I]-PYY from hY2R/CHO membranes
Protocol: After incubation at room temperature for 60 minutes, the mixture was filtered through the cell harvester FilterMate (PerkinElmer) using UniFilter-96 GF/C treated with polyethylenimine (PEI) solution (20 mM Tris, 0.3% PEI, pH 7.4), and the filter was washed 3 times with a filtering buffer (50 mM Tris, 5 mM MgCl₂, 150 mM NaCl, 0.03% NaN₃, 0.05% CHAPS, pH 7.4). Thereafter, UniFilter-96 GF/C was dried in a mechanical drier for 1 hour, 15 μl of the liquid scintillator MicroScint O (PerkinElmer) was added to each well, and a measurement was taken using TopCount (PerkinElmer). The data obtained were analyzed using Prism to calculate the IC₅₀ value.

| IC50 Ratio | Binder |
| --- | --- |
| 1.6 IC50 compound/IC50 PYY(3-36) | B1 |
| 1.3 IC50 compound/IC50 PYY(3-36) | B2 |
| 0.89 IC50 compound/IC50 PYY(3-36) | B3 |
| 1.7 IC50 compound/IC50 PYY(3-36) | B4 |
| 1 IC50 compound/IC50 PYY(3-36) | B5 |
| 1.1 IC50 compound/IC50 PYY(3-36) | B6 |
| 0.76 IC50 compound/IC50 PYY(3-36) | B7 |

Reference: US20120172293A1 (Takeda / Millennium, published 2012)
